This is an account of results in patent US20240309081A1 (QYUNS THERAPEUTICS, published 2024).

The target of experiment [1] is T1, interleukin-33 of rhesus monkeys (rhesus monkey, UniProt F7DLG4 112-269).
T1 construct: also called rhesus monkey IL-33
T1 sequence: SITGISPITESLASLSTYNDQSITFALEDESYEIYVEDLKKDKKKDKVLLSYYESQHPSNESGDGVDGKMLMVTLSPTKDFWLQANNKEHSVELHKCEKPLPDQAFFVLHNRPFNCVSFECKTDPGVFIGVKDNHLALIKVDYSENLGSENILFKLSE
As to the kind of experiment: SPR (Biacore T200), antibody captured on Protein A chip.

Experiment [2] deals with T2, human interleukin-33 (hIL-33) (human, UniProt O95760 112-270).
T2 construct: The immunogen was bought from Novoprotein; also called recombinant human interleukin-33
T2 sequence: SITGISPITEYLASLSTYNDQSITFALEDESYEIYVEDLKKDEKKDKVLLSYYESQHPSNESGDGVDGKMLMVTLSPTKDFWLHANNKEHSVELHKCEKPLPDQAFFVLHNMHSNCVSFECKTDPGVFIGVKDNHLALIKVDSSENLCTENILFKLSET
The experiment in a line: SPR (Biacore T200, 25 C), antibody captured on Protein A chip, antigen as analyte, 1:1 model. The procedure:
Commercialized Protein A chip was used to immobilize an appropriate amount of antibody by capture method, so that the Rmax was about 50 RU, and the capture flow rate was 10 μl/min. The antigen was diluted by gradient, the flow rate of the instrument was switched to 30 μl/min, and the antigen flowed through the reference channel and the channel of the immobilized antibody in order of concentration from low to high, and the buffer was used as a negative control. After each binding and dissociation, the chip was regenerated with glycine at pH 1.5. The 1:1 binding model in Kinetics option was selected for fitting using the analysis software that comes with the instrument, and the binding rate constant kₐ, the dissociation rate constant kd and the equilibrium dissociation constant KD value of the antibody were calculated.
In addition, the affinity of QX007N (HZD78-70) and Etokimab/ANB020, a monoclonal antibody against human interleukin-33 developed by AnaptysBio were compared, and the detection method for known antibodies was the same as that for QX007N. Particularly, Etokimab/ANB020 was self-made by constructing an expression plasmid according to the APE4909 sequence provided by the patent WO2015106080A2, and transiently transfecting ExpiCHO-S cells.
(In general: In SPR one partner is held on a chip, and binding of the other changes the refractive index at the surface.)

For experiment [3], the target named is T2, human interleukin-33 (hIL-33). The experiment in a line: cell-based or functional assay.
In experiment [4] the target is T3, natural human interleukin-33 (human) (UniProt O95760).
T3 sequence (looked up): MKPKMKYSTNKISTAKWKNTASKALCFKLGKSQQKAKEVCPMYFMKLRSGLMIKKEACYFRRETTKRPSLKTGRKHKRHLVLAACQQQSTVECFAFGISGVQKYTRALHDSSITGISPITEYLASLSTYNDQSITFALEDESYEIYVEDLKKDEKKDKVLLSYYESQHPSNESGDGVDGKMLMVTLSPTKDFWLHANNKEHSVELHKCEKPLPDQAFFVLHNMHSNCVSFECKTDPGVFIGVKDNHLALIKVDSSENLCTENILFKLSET
The experiment in a line: cell-based or functional assay.

B1: QX007N (HZD78-70) (antibody, human IgG1, kappa, V domains shown)
VH: EVQLVESGGGLVQPGGSLRLSCAASGFSLSSYHMIWVRQAPGKGLEWVGVIYPNSNIYYATWAKGRFTISRDNSKNTLYLQMNSLRAEDTAVYYCARTIYVHVYSALSIWGQGTLVTVSS
VL: AFQMTQSPSSVSASVGDRVTITCQASESVLNEVSWYQQKPGKAPKLLIYFASKLASGVPSRFSGSGSGTDFTLTISSLQPEDFATYYCQQDWSMDNIDNAFGGGTKVEIKR
notes: Humanized rabbit antibody, expressed in ExpiCHO-S cells and purified with Protein A; also called humanized 78#
Broadly, the Kd is a measure of binding affinity in units of concentration. The low end stands for higher affinity, the high end for lower affinity. A word on the koff: it is the rate constant with which the complex falls apart. High values mean a short-lived complex, low ones a long-lived complex. Usually kon stands for the rate constant with which the complex forms. High values mean fast association, low ones slow association. In the case of B1, the binding result in experiment [1] was “no binding”. In experiment [2], this molecule registered a dissociation constant (Kd) of 1.23 nM, a koff of 0.000481 s⁻¹ and an association rate constant (kon) of 392000 M⁻¹ s⁻¹.

B2: Etokimab/ANB020 (antibody, INN chains, looked up, V domains shown)
VH: QVQLMQSGAEVKKPGASVKVSCKASGYTFTSYWMHWVRQAPGQGLEWMGTIYPRNSNTDYNQKFKARVTMTRDTSTSTVYMELSSLRSEDTAVYYCARPLYYYLTSPPTLFWGQGTLVTVSS
VL: DIQLTQSPSFLSASVGDRVTITCKASQDVGTAVAWYQQKPGKAPKLLIYWASTRHTGVPSRFSGSGSGTEFTLTISSLQPEDFATYYCQQAKTYPFTFGSGTKLEIK
As to B2, in experiment [3], the inhibition of NF-KB/AP-1 signal transduction in HEK Blue IL-33 cells induced by recombinant human interleukin-33 (SEAP, OD630nm) is 6.05 ng/mL; the neutralization of IFN-gamma release from human whole blood induced by recombinant human interleukin-33 is 31.9 ng/mL; the neutralization of IL-5 release from KU812 cells induced by recombinant human interleukin-33 (IL-5 ELISA) was 44 ng/mL. The molecule also had an inhibition of NF-KB/AP-1 signal transduction in HEK Blue IL-33 cells induced by natural human interleukin-33 (SEAP, OD630nm) in experiment [4] of 2.5 ng/mL. In experiment [2], this molecule yielded a Kd of 0.869 nM, a koff of 0.000369 s⁻¹ and a kon of 424000 M⁻¹ s⁻¹.
